From paper PMC8991256

Molecular target: LH1–RC core complex, monomeric component of the native dimer (Rhodobacter sphaeroides f. sp. denitrificans strain IL106 (endogenous)) (UniProt Q3J1A4)
Test: cryo-EM structure; native dimeric LH1–RC from Rba. sphaeroides IL106 in DDM, ~5 mg/ml; C1 symmetry, 2.75 Å

LH1–RC core complex, monomeric component of the native dimer (from UniProt Q3J1A4 1-58; Q3J1A3 1-49; P0C0Y8 1-282; P0C0Y9 1-308; P0C0Y7 1-260; P13402 1-82)
stoichiometry N: 2
